Test results from the Human Domainome abundance scans (Beltran et al. 2025).
± gives the uncertainty stated by the source.

B1: PDZ and LIM domain protein 2, residues 284 to 339; numbered along this chain, Q96JY6 (parent)
chain: HTCEKCSTSIANQAVRIQEGRYRHPGCYTCADCGLNLKMRGHFWVGDELYCEKHAR

Variants of: B1
Test: abundance fitness (aPCA) (normalised: wild type 0, dead -1); higher = more abundant; growth selection in yeast, the domain comes from the species named
Conditions: Homo sapiens

| Variant | abundance fitness |
| --- | --- |
| HTCEKCSTSIANQAVRIQEGRYRLPGCYTCADCGLNLKMRGHFWVGDELYCEKHAR [H24L] | -0.898 ± 0.077 |
| HTCEKCSTSIANQAVRIQEGRYRSPGCYTCADCGLNLKMRGHFWVGDELYCEKHAR [H24S] | -0.264 ± 0.093 |
| HTCEKCSTSIANQAVRIQEGRYRMPGCYTCADCGLNLKMRGHFWVGDELYCEKHAR [H24M] | -0.492 ± 0.09 |
| HTCEKCSTSIANQAVRIQEGRYRQPGCYTCADCGLNLKMRGHFWVGDELYCEKHAR [H24Q] | -0.186 ± 0.2 |
| HTCEKCSTSIANQAVRIQEGRYRWPGCYTCADCGLNLKMRGHFWVGDELYCEKHAR [H24W] | -0.788 ± 0.17 |
| HTCEKCSTSIANQAVRIQEGRYRKPGCYTCADCGLNLKMRGHFWVGDELYCEKHAR [H24K] | -0.193 ± 0.11 |
| HTCEKCSTSIANQAVRIQEGRYRPPGCYTCADCGLNLKMRGHFWVGDELYCEKHAR [H24P] | -0.582 ± 0.086 |
| HTCEKCSTSIANQAVRIQEGRYRNPGCYTCADCGLNLKMRGHFWVGDELYCEKHAR [H24N] | -0.345 ± 0.12 |
| HTCEKCSTSIANQAVRIQEGRYRRPGCYTCADCGLNLKMRGHFWVGDELYCEKHAR [H24R] | -0.435 ± 0.083 |
| HTCEKCSTSIANQAVRIQEGRYRHKGCYTCADCGLNLKMRGHFWVGDELYCEKHAR [P25K] | -0.003 ± 0.092 |
| HTCEKCSTSIANQAVRIQEGRYRHNGCYTCADCGLNLKMRGHFWVGDELYCEKHAR [P25N] | -0.152 ± 0.14 |
| HTCEKCSTSIANQAVRIQEGRYRHIGCYTCADCGLNLKMRGHFWVGDELYCEKHAR [P25I] | -0.033 ± 0.062 |
| HTCEKCSTSIANQAVRIQEGRYRHGGCYTCADCGLNLKMRGHFWVGDELYCEKHAR [P25G] | -0.053 ± 0.091 |
| HTCEKCSTSIANQAVRIQEGRYRHWGCYTCADCGLNLKMRGHFWVGDELYCEKHAR [P25W] | -0.807 ± 0.17 |
| HTCEKCSTSIANQAVRIQEGRYRHVGCYTCADCGLNLKMRGHFWVGDELYCEKHAR [P25V] | -0.169 ± 0.072 |
| HTCEKCSTSIANQAVRIQEGRYRHMGCYTCADCGLNLKMRGHFWVGDELYCEKHAR [P25M] | 0.075 ± 0.085 |
| HTCEKCSTSIANQAVRIQEGRYRHDGCYTCADCGLNLKMRGHFWVGDELYCEKHAR [P25D] | 0.323 ± 0.075 |
| HTCEKCSTSIANQAVRIQEGRYRHSGCYTCADCGLNLKMRGHFWVGDELYCEKHAR [P25S] | 0.118 ± 0.068 |
| HTCEKCSTSIANQAVRIQEGRYRHFGCYTCADCGLNLKMRGHFWVGDELYCEKHAR [P25F] | -0.492 ± 0.1 |
| HTCEKCSTSIANQAVRIQEGRYRHCGCYTCADCGLNLKMRGHFWVGDELYCEKHAR [P25C] | -0.546 ± 0.19 |
| HTCEKCSTSIANQAVRIQEGRYRHTGCYTCADCGLNLKMRGHFWVGDELYCEKHAR [P25T] | -0.09 ± 0.095 |
| HTCEKCSTSIANQAVRIQEGRYRHEGCYTCADCGLNLKMRGHFWVGDELYCEKHAR [P25E] | 0.402 ± 0.082 |
| HTCEKCSTSIANQAVRIQEGRYRHAGCYTCADCGLNLKMRGHFWVGDELYCEKHAR [P25A] | 0.113 ± 0.093 |
| HTCEKCSTSIANQAVRIQEGRYRHYGCYTCADCGLNLKMRGHFWVGDELYCEKHAR [P25Y] | -0.414 ± 0.27 |

| Variant | abundance fitness |
| --- | --- |
| HTCEKCSTSIANQAVRIQEGRYRHQGCYTCADCGLNLKMRGHFWVGDELYCEKHAR [P25Q] | 0.035 ± 0.083 |
| HTCEKCSTSIANQAVRIQEGRYRHLGCYTCADCGLNLKMRGHFWVGDELYCEKHAR [P25L] | 0.099 ± 0.054 |
| HTCEKCSTSIANQAVRIQEGRYRHPGCVTCADCGLNLKMRGHFWVGDELYCEKHAR [Y28V] | -0.144 ± 0.095 |
| HTCEKCSTSIANQAVRIQEGRYRHPGCTTCADCGLNLKMRGHFWVGDELYCEKHAR [Y28T] | 0.116 ± 0.11 |
| HTCEKCSTSIANQAVRIQEGRYRHPGCMTCADCGLNLKMRGHFWVGDELYCEKHAR [Y28M] | -0.13 ± 0.11 |
| HTCEKCSTSIANQAVRIQEGRYRHPGCLTCADCGLNLKMRGHFWVGDELYCEKHAR [Y28L] | -0.262 ± 0.098 |
| HTCEKCSTSIANQAVRIQEGRYRHPGCCTCADCGLNLKMRGHFWVGDELYCEKHAR [Y28C] | -0.187 ± 0.12 |
| HTCEKCSTSIANQAVRIQEGRYRHPGCHTCADCGLNLKMRGHFWVGDELYCEKHAR [Y28H] | -0.225 ± 0.095 |
| HTCEKCSTSIANQAVRIQEGRYRHPGCQTCADCGLNLKMRGHFWVGDELYCEKHAR [Y28Q] | -0.246 ± 0.11 |
| HTCEKCSTSIANQAVRIQEGRYRHPGCFTCADCGLNLKMRGHFWVGDELYCEKHAR [Y28F] | -0.364 ± 0.13 |
| HTCEKCSTSIANQAVRIQEGRYRHPGCSTCADCGLNLKMRGHFWVGDELYCEKHAR [Y28S] | -0.179 ± 0.068 |
| HTCEKCSTSIANQAVRIQEGRYRHPGCDTCADCGLNLKMRGHFWVGDELYCEKHAR [Y28D] | -0.772 ± 0.23 |
| HTCEKCSTSIANQAVRIQEGRYRHPGCETCADCGLNLKMRGHFWVGDELYCEKHAR [Y28E] | -0.548 ± 0.16 |
| HTCEKCSTSIANQAVRIQEGRYRHPGCWTCADCGLNLKMRGHFWVGDELYCEKHAR [Y28W] | 0.053 ± 0.16 |
| HTCEKCSTSIANQAVRIQEGRYRHPGCRTCADCGLNLKMRGHFWVGDELYCEKHAR [Y28R] | -0.473 ± 0.06 |
| HTCEKCSTSIANQAVRIQEGRYRHPGCATCADCGLNLKMRGHFWVGDELYCEKHAR [Y28A] | -0.076 ± 0.063 |
| HTCEKCSTSIANQAVRIQEGRYRHPGCKTCADCGLNLKMRGHFWVGDELYCEKHAR [Y28K] | -0.434 ± 0.14 |
| HTCEKCSTSIANQAVRIQEGRYRHPGCITCADCGLNLKMRGHFWVGDELYCEKHAR [Y28I] | -0.452 ± 0.2 |
| HTCEKCSTSIANQAVRIQEGRYRHPGCNTCADCGLNLKMRGHFWVGDELYCEKHAR [Y28N] | -0.294 ± 0.12 |
| HTCEKCSTSIANQAVRIQEGRYRHPGCGTCADCGLNLKMRGHFWVGDELYCEKHAR [Y28G] | -0.471 ± 0.11 |
| HTCEKCSTSIANQAVRIQEGRYRHPGCPTCADCGLNLKMRGHFWVGDELYCEKHAR [Y28P] | -0.752 ± 0.21 |
| HTCEKCSTSIANQAVRIQEGRYRHPSCYTCADCGLNLKMRGHFWVGDELYCEKHAR [G26S] | 0.069 ± 0.071 |
| HTCEKCSTSIANQAVRIQEGRYRHPFCYTCADCGLNLKMRGHFWVGDELYCEKHAR [G26F] | 0.19 ± 0.091 |
